Test results taken from patent publication US20240325520A1.
Where two headings read alike, the source gives them in different places.

Assays:
[1] = biological target: RBD protein (K417N, N501Y, E484K)
[2] = biological target: RBD protein (L452R, E484Q)
[3] = biological target: RBD protein (L452R, E484Q); remark: listed apart in the source

MM43 neutralizing monoclonal antibody (Beijing Sino Biological Ltd. Co., article number 40591-MM43)
EC50 (read off the curve) [1]: 0.7 µg/mL

MM57 neutralizing monoclonal antibody (Beijing Sino Biological Ltd. Co., article number 40592-MM57)
EC50 (read off the curve) [2]: 0.2 µg/mL

R001 neutralizing monoclonal antibody (Beijing Sino Biological Ltd. Co., article number 40592-R001)
EC50 (read off the curve) [3]: 0.2 µg/mL
